± gives the standard deviation.
Experiment: protein stability index of a GFP-peptide fusion (GPS, HEK-293T) (PSI 1-6); higher = more stable
[1] = treatment: DMSO, c terminus: a fixed tail appended
[2] = treatment: MLN4924 1 uM, 8 h, c terminus: a fixed tail appended
[3] = treatment: DMSO, c terminus: native
[4] = treatment: MLN4924 1 uM, 8 h, c terminus: native
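Also: 24-mer peptide tiles fused after GFP, lentivirally expressed, FACS-sorted into six equal bins by GFP/DsRed ratio, decoded by Illumina sequencing, PSI is the read-weighted mean bin number.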

Sequence | protein stability index [1] | protein stability index [2] | protein stability index [3] | protein stability index [4]
REKEDYLHLKRQPKRRWLFWNSPS [RHOBTB2] | 2.42 ± 0.23 | 2.56 ± 0.18 | – | –
ASDYFKAMFTGGMKEQDLMCIKLH [KLHL13] | 2.13 ± 0.17 | 2.13 ± 0.25 | – | –
QPADVFPRLFKEWNITKLSIEYDS [CRY1] | 2.7 ± 0.32 | 2.92 ± 0.3 | – | –
FTRSQTLIQNGGEIDCVDKDGNTP [ANKRD44] | 4.74 ± 0.16 | 4.81 ± 0.21 | – | –
NPEEDEDQRNPAKESLETPSNGRI [SOAT1] | 5.76 ± 0.064 | 5.62 ± 0.077 | – | –
ASALTLVLGGRRLRRAWFSWPRAS [SCNN1D] | 2.13 ± 0.39 | 2.05 ± 0.28 | – | –
VAASPAPAGERRIYRHRIPSTICF [ZNF511] | 2.51 ± 0.18 | 2.48 ± 0.21 | – | –
EIDCVDKDGNTPLHVAARYGHELL [ANKRD44] | 4.05 ± 0.26 | 4.05 ± 0.19 | – | –
TAELVVIEDAAEPKEPAPPNGSAA [PALM] | 5.39 ± 0.14 | 5.47 ± 0.16 | – | –
ISGREVFEFRPELVNDDDEEADDT [ZC3H15] | 5.51 ± 0.26 | 5.47 ± 0.16 | – | –
FDTNAEGCILQWKKIYCRICMAQI [ZBED1] | 2.39 ± 0.65 | 2.04 ± 0.079 | – | –
LDFLQEVTRQPRNLQDLCRIKIRQ [ASB7] | 3.35 ± 0.16 | 3.57 ± 0.3 | – | –
YTVKDKATGEVLGQFYLDLYPREG [NLN] | 3.1 ± 0.69 | 2.8 ± 0.77 | – | –
SLKLALLFYILTFVGAIFNGLTLL [RTN2] | 3.88 ± 0.94 | 3.04 ± 0.11 | – | –
IPYFITLGTELAERQGNGQQAMSL [KCNA3] | 3.03 ± 0.59 | 3.01 ± 0.37 | – | –
MADPWQECMDYAVTLARQAGEVVC [IMPA1] | 2.56 ± 0.44 | 2.37 ± 0.21 | – | –
RLAAIAQEKDQEMERLRELQRASI [FBF1] | 4.34 ± 0.17 | 4.43 ± 0.22 | – | –
LPIVKLLAKQPGVSVNAQTLDGRT [RIPK4] | 2.71 ± 0.17 | 3.13 ± 0.56 | – | –
MAAGFPYALRAYLGYQAVPSGSSG [CEBPB] | 2.1 ± 0.3 | 2.04 ± 0.18 | – | –
PQKSLFFHHIPSTCQRVNGIKVQN [SLC19A2] | 2.61 ± 0.17 | 2.78 ± 0.27 | – | –
TPKSGEPRVPEEAAQDRPMSPGDC [YJU2B] | 5.49 ± 0.24 | 5.42 ± 0.25 | – | –
SGSAGQYGSDQQHHLGSGSGAGGT [MYOZ1] | 4.98 ± 0.21 | 5.12 ± 0.29 | – | –
GRKKYDIDPRNGIPKLTPGDNPYM [SPATS1] | 3.57 ± 0.18 | 3.71 ± 0.32 | – | –

Sequence | protein stability index [1] | protein stability index [2] | protein stability index [3] | protein stability index [4]
IPKPQSTGWFGGGFTSYLGFGDED [MIA2] | 3.14 ± 0.16 | 3.53 ± 0.55 | – | –
PMNRRNILVMKHNYSQDAADACDI [NETO1] | 3.59 ± 0.11 | 3.8 ± 0.27 | – | –
KHFCPRAPVILVGCQLDLRYADLE [RHOBTB2] | 2.3 ± 0.65 | 2.52 ± 0.59 | – | –
VFDSEKCVSIPDVVGWFVLFYKPG [GULP1] | 2.8 ± 1 | 2.83 ± 0.33 | – | –
RQFLPEEFMKTLEKTGPQLTSRIK [DENND6A] | 3.55 ± 0.33 | 3.58 ± 0.43 | – | –
TPAFMFRLDASTSHQNLRVDDLSV [FSD1] | 2.9 ± 0.28 | 3.07 ± 0.31 | – | –
YGPLKPLPQTPHLEEDLKEVLRSE [MYBL2] | 5 ± 0.19 | 4.95 ± 0.24 | – | –
VQADQERERQRRLEVEREAEKKRE [LRRC59] | 5.52 ± 0.093 | 5.64 ± 0.17 | – | –
YKCSDCGKTFKQSSNLGQHQRIHT [ZNF232] | 4.22 ± 0.18 | 4.3 ± 0.45 | – | –
TCGGGVQFSSRDCTRPVPRNGGKY [ADAMTS4] | 4.19 ± 0.33 | 3.94 ± 0.65 | – | –
MKNEKLLSKASEPKYQLFVPQLVT [RNF180] | 2.69 ± 0.3 | 2.82 ± 0.24 | – | –
DVPVIPLDVVDNQTEKLDTNITEV [CASP6] | 5.19 ± 0.067 | 5.14 ± 0.3 | – | –
ILESSQTLLSVLKREAGNLTKATA [SSNA1] | 2.69 ± 0.46 | 2.99 ± 0.29 | – | –
SFGQVVKAYDHQTQELVAIKIIKN [DYRK1B] | 2.76 ± 0.31 | 2.97 ± 0.2 | – | –
VNADIEKVNQNQAKRCTVIGGSGF [NSDHL] | 3.79 ± 0.2 | 3.87 ± 0.19 | – | –
GADKEILTTKGEMPVQLTSRREIR [ANKRD40] | 4.83 ± 0.13 | 4.95 ± 0.19 | – | –
RVFLFQAPSKEEMLSWILRINLVA [PSD2] | 2.64 ± 0.54 | 2.7 ± 0.46 | – | –
EESTPGQTNSETAVVALTQDQPSE [HDAC6] | 5.49 ± 0.22 | 5.59 ± 0.34 | – | –
AGFAQLTHLLMGLAGGKLILSLEG [HDAC6] | 3.56 ± 0.82 | 3.05 ± 0.82 | – | –
RVRRFQVVEVTKGILEHVDSASPV [M1AP] | 3.36 ± 0.2 | 3.37 ± 0.17 | – | –
SESSGQTHLEGDTVQIICNTGYRL [CFHR2] | 3.34 ± 0.21 | 3.48 ± 0.38 | – | –
EDTKPKPTKRKRKGSSAVGSDSD [INTS3] | – | – | 5.45 ± 0.25 | 5.4 ± 0.33
IEVFDPDANTWRLYGGMNYRRLGG [KLHL20] | 2.38 ± 0.45 | 2.17 ± 0.26 | – | –

Sequence | protein stability index [1] | protein stability index [2] | protein stability index [3] | protein stability index [4]
AAPWPMAFPYQYPPPPHPYNPHPG [DVL3] | 2.62 ± 0.26 | 2.85 ± 0.21 | – | –
ELERLIDKAMKKDGLVGMAIVGGM [FIS1] | 2 ± 0.29 | 2.46 ± 0.37 | – | –
RVIKCDPDCLRACQEQIEALLESS [CCND1] | 3.3 ± 0.3 | 3.19 ± 0.2 | – | –
ESDDAFDTVTIPVPSEEPQESDQT [IQUB] | 5.69 ± 0.24 | 5.72 ± 0.3 | – | –
EEKIQVLQQQNEDLKARIDQNTVV [MTUS2] | 5.28 ± 0.24 | 5.28 ± 0.069 | – | –
ESYPEDTVFYIPEDHKPGTFPKAL [DLC1] | 4.13 ± 0.31 | 4.22 ± 0.21 | – | –
VIMWDIGGRKGTAIELQGHNDRVQ [WDFY2] | 2.57 ± 0.64 | 2.45 ± 0.17 | – | –
DEEERRRRVFDVPIRRRRCSRLF [FBXO3] | – | – | 3.32 ± 0.61 | 3.73 ± 0.82
FRCLFEAEITQIQSHISDMSVILS [KRT71] | 1.94 ± 0.14 | 2.34 ± 0.37 | – | –
VCTFTYLLVGAAVFDALESDHEMR [KCNK9] | 2.9 ± 0.7 | 2.85 ± 0.15 | – | –
TATEELEKTQDDLMKHQTNISELK [EPB41L3] | 5.69 ± 0.23 | 5.47 ± 0.39 | – | –
RAEPYPTSRFGSQCMQPNNIMGIE [NR2F2] | 2.84 ± 0.15 | 2.81 ± 0.18 | – | –
NSVSSHASSPYISSVQSYPGSASL [DLX1] | 3.65 ± 0.19 | 3.75 ± 0.23 | – | –
ERTEESSAVQYFQFYGYLSQQQNM [CARM1] | 2.56 ± 0.25 | 2.82 ± 0.52 | – | –
PPETSLPYKWVVEAANLLIPAVGS [MYBL2] | 2.41 ± 0.42 | 2.27 ± 0.29 | – | –
NWIVPGKFLAFSGPHPKSKIENGY [CDC14A] | 2.32 ± 0.36 | 2.61 ± 0.48 | – | –
VPQDPDLEEEEEEEDLVLTCEDDE [ZBTB22] | 5.59 ± 0.22 | 5.64 ± 0.25 | – | –
LENTYRDFWLMVWEQKVLVIVMTT [PTPN9] | 2.36 ± 0.7 | 2.59 ± 0.6 | – | –
RQSYDISIVAQVDQTGSKSSNLLD [CARM1] | 3.93 ± 0.092 | 4.07 ± 0.17 | – | –
DEIEEVPTTSHRLSRHDKAVQRFC [NETO1] | 4.78 ± 0.18 | 4.68 ± 0.1 | – | –
LKEFDLDALLGIDDLETMPDDLLT [ATF4] | 3.81 ± 0.2 | 4.05 ± 0.38 | – | –
EKLCSISLSHINAYACLVCGKYFQ [USP39] | 2.67 ± 0.56 | 2.61 ± 0.58 | – | –
LLIANKRQSYDISIVAQVDQTGSK [CARM1] | 2.47 ± 0.25 | 2.52 ± 0.26 | – | –

Sequence | protein stability index [1] | protein stability index [2] | protein stability index [3] | protein stability index [4]
GRRLKSPQAPDPEEEENRDSQQPG [FANCE] | 5.44 ± 0.25 | 5.67 ± 0.27 | – | –
VVLDMEEGTLGYAIGGTYLGPAFR [SPSB2] | 2.37 ± 0.24 | 2.19 ± 0.074 | – | –
CGCGSFCRLGYGCGYEGCRYGCGH [KRTAP19-2] | 2.55 ± 0.44 | 2.62 ± 0.46 | – | –
WTHVTLLIVVTQSHLVIHNLFEGM [CDS2] | 3.22 ± 0.23 | 3.34 ± 0.35 | – | –
VSGSPVTQNHAASALPTGSPKRGT [FBF1] | 5.27 ± 0.16 | 5.22 ± 0.25 | – | –
PHDRSQGDWAPPPEGGMEQALAGA [ZNF263] | 4.85 ± 0.26 | 4.83 ± 0.31 | – | –
ENTIAGANHTHTFYGHSHHSHHGH [C10orf62] | 3.58 ± 0.25 | 3.78 ± 0.23 | – | –
DAAGHGFCYCAGSHKRKRSSGSFC [GMCL1] | 3.08 ± 0.22 | 3.35 ± 0.15 | – | –
PYKWVVEAANLLIPAVGSSLSEAL [MYBL2] | 2.88 ± 0.32 | 2.63 ± 0.67 | – | –
REETPRMPSWASARDRQPSDFKTD [ELOA2] | 4.96 ± 0.18 | 5.03 ± 0.38 | – | –
EVLSKALSQRTITVGVYEAAKLLN [GADD45A] | 2.77 ± 0.45 | 2.56 ± 0.53 | – | –
VLYPDGQAQMIHPKPADFRNPGPG [INTS4] | 3.59 ± 0.098 | 3.67 ± 0.3 | – | –
QENQARTHVLSKEVQHLREEKSKQ [LRRC45] | 5.2 ± 0.29 | 5.36 ± 0.29 | – | –
KDAALATALGDKKSLEGDLEDLKD [LMNB1] | 5.42 ± 0.36 | 5.89 ± 0.14 | – | –
SPVRCGGPGDASPRGCGARRAGEG [WEE1] | 4.54 ± 0.19 | 4.68 ± 0.095 | – | –
DDIARIYQPKRYALSPKTTITMAH [FAM98B] | 2.77 ± 0.21 | 2.92 ± 0.17 | – | –
VLPKPKVISCLEQGEEPWVQVSPE [ZNF75A] | 4.21 ± 0.23 | 4.07 ± 0.3 | – | –
RHCPELAEMSRVSIRILDELVLPF [HNF4A] | 2.12 ± 0.13 | 2.31 ± 0.38 | – | –
TIEYLKRHNALLSKRLLALTSSDL [TMEM192] | 2.38 ± 0.42 | 2.17 ± 0.21 | – | –
TPVIAATPVPTITANVTSVPVPPA [BRD3] | 4.53 ± 0.23 | 4.52 ± 0.047 | – | –
